Consider 1 substance from patent US20060281899A1, “Mutants of biotin binding protein” (priority 2002, published 2006).

Data set [1] in a line: IAsys optical biosensor, affinity of avidin and avidin mutants towards 2-iminobiotin. The format is binding. The method, then:
Reversibility of biotin binding was measured for avidin and the mutants with an IAsys optical biosensor (Laitinen, O. H. et al., FEBS Lett 461 (1999), 52-8). Protein samples were allowed to bind to a biotin-aminosilane cuvette in PBS containing 1 M NaCl. After the equilibrium was reached, biotin-containing buffer was added and the dissociation of the proteins was monitored. The affinities of the proteins towards 2-iminobiotin were determined with an IAsys optical biosensor (Marttila, A. T. et al. FEBS Lett 441 (1998), 313-7). Biotin-binding activity of the mutants Avd-ci and Avd-ccci after heat treatment was studied with a microtiter plate assay. Protein samples, 5 μg/ml concentration in PBS, were heated for various time periods at 99.9° C. and then chilled on ice. The samples were transferred to a Nunc Maxisorp-plate and incubated at 37° C. for 2 h. The wells were washed three times with PBS-Tween (0.05% v/v). After that the wells were blocked with PBS containing 1% BSA at 37° C. for 30 minutes and washed again with PBS-Tween. Next, biotinylated alkaline phosphatase (Sigma) in PBS, 1% BSA was added and incubated at 37° C. for one hour. Once again, the wells were washed with PBS-Tween and the PNPP substrate in DEA buffer (1 mg/ml) was applied to the wells. The absorbances at 405 nm were measured after incubation for 45 minutes.

The conditions of data set [2]: biotin cuvette; avidin values from literature; cited from earlier work.
A short description of data set [3]: Differential scanning calorimetry of avidin and AVR4/5 forms. The format is physicochemical. The protocol: The thermodynamics of the heat-induced unfolding of the proteins were studied using DSC. The transition midpoint of heat-induced denaturation (Tm) of the avidin and different AVR4/5 forms was studied using a Nano II differential scanning calorimeter (Calorimetric Sciences Corporation, Provo, Utah, USA). The reference cell was filled with buffer whereas the sample cell was filled with proteins dissolved in 50 mM sodium phosphate buffer, pH 7.0 containing 100 mM NaCl. Avidin and AVR4/5(C124S) were also analyzed in 50 mM Na-acetate pH 4.0 containing 100 mM NaCl. Furthermore, AVR4/5 was analyzed in the presence of 2-mercaptoethanol (0.4% v/v). The samples (1.6-9.6 μM) were analyzed both in the absence and presence of a three fold molar excess of biotin/subunit. All samples were degassed before being loaded into the DSC. The thermograms were recorded as a function of temperature; between 25 and 130° C. at a rate of 55.6° C./h (Gonzalez, M., Argarana, C. E. & Fidelio, G. D. (1999) Biomol. Eng. 16, 67-72; Nordlund, H. R., Laitinen, O. H., Uotila, S. T., Nyholm, T., Hytönen, V. P., Slotte, J. P. & Kulomaa, M. S. (2003) J. Biol. Chem. 278, 2479-2483). Data was analyzed using Microcal Origin 6.0 and Cpcalc 2.1 (Applied Thermodynamics, Hunt Valley, Md.). The change in heat capacity upon unfolding (ΔCp) was measured for avidin and AVR4/5(C124S) using DSC data from measurements in pH 4.0 and 7.0. ΔCp was then obtained from the slope of ΔH vs. Tm (Liu, Y. & Sturtevant, J. M. (1996) Biochemistry 35, 3059-3062).
(Differential scanning calorimetry records heat flow against a reference as temperature is scanned.)

The conditions of data set [4]: biotin cuvette; values from Hytönen 2003; cited from earlier work.
The nature of data set [5]: Differential scanning calorimetry of the avidin mutants. The data set is classed as physicochemical. To be noted: DSC, 100 mM Na-phosphate buffer pH 7.4. The protocol:
In order to study the thermal stability of the purified avidin mutants, they were subjected to analysis by differential scanning calorimetry. A Nano II differential scanning calorimeter (Calorimetric Science Corporation, Provo, Utah) was used. […] The reference cell was filled with the same buffer that the sample proteins were dissolved in (100 mM Na-phosphate buffer pH 7.4). The thermograms were recorded as a function of temperature, between 25 and 130° C. at a temperature scan rate of 55.6° C./h. The baselines were subtracted and the transition midpoints (Tm) of the samples were calculated using proprietary software provided by the instrument manufacturer.

Data set [6] is described as follows: Non-reducing SDS-PAGE thermostability, oligomeric forms after boiling. The format is physicochemical. The following applies: boiled 20 minutes. The protocol: The heat stability of the AVRs was studied by using an SDS-PAGE-based method (Bayer, E. A., Ehrlich-Rogozinski, S. and Wilchek, M. (1996) Electrophoresis 17, 1319-1324). In this method, each protein sample was divided into two fractions one of which was kept biotin-free and the other was supplemented with an excess of biotin. The samples were then mixed with denaturing SDS-PAGE sample buffer (containing β-mercaptoethanol) and incubated at a given temperature for 20 minutes. After heat treatment, the samples were subjected to SDS-PAGE and visualised by staining with Coomassie brilliant blue. The relative proportions of tetrameric and monomeric forms of the AVR proteins (with avidin as the control) were detected. A similar assay, with β-mercaptoethanol omitted from the sample buffer, was performed to examine the presence of intersubunit disulfide-bridges. Sensitivity to proteinase K was studied both in the absence and in the presence of biotin as described (Laitinen, O. H., Airenne, K. J., Marttila, A. T., Kulik, T., Porkka, E., Bayer, E. A., Wilchek, M. and Kulomaa, M. S. (1999) FEBS Lett. 461, 52-8). The isoelectric point of each AVR was determined by isoelectric focusing as previously reported (Marttila, A. T., Airenne, K. J., Laitinen, O. H., Kulik, T., Bayer, E. A., Wilchek, M. and Kulomaa, M. S. (1998) FEBS Lett. 441, 313-317). […]

As to “wt Avidin: Wild-type chicken avidin (SEQ ID NO 1), purified from chicken egg-white [reference compound]”, binding in data set [1] was put at a Kd of 25 nM. The “Reversibility of biotin binding” value in data set [2] is listed as 1 ± 1%. For the same substance, the “Tm at pH 4” value in data set [3] (50 mM Na-acetate pH 4.0, 100 mM NaCl) stood at 76.6±0.2 °C. Besides, in data set [3] (50 mM sodium phosphate pH 7.0, 100 mM NaCl), the “DSC Tm(−biotin)” value was 83.5 ± 0.1 °C. For the same substance, the ΔTm in data set [3] (change in Tm upon addition of a three-fold molar excess of biotin) stood at 33.5 °C. In data set [3] (sample without biotin), the ΔH of unfolding was determined as 78.6 ± 1.2 kcal/mol. Moreover, the “ΔCp (change in heat capacity upon unfolding)” value in data set [3] (slope of ΔH vs. Tm, DSC at pH 4.0 and 7.0) is 0.00366 kcal/mol. Further, the “DSC Tm (+biotin)” value in data set [3] (three-fold molar excess of biotin, pH 7.0) was 117.0 ± 0.7 °C. Further, the “Reversibility of binding to biotin” value in data set [4] is reported as 4 ± 2%. The Tm in data set [5] (+ biotin (biotin:avidin molar ratio 3:1)) stood at 118.2 ± 0.1 °C; in data set [5] (without biotin) it was 85.5 ± 0.1 °C. Besides, the “Monomeric form, relative proportion” value in data set [6] was 100 percentage.

Usually Kd stands for the equilibrium constant for the complex coming apart. For orientation: ΔTm means the change in melting temperature against a reference sample.
